Data as given in article PMC9088798, “An Approach to Derive Functional Peptide Inhibitors of Transcription Factor Activity”.

How the values were obtained:
[1] = molecular target: cJun bZIP (human, UniProt P05412); assay: CD (281 nm DNA peak); 20 uM cJun, 5 uM DNA; DNA peak decreases by 55%; EMSA: 150 mM KCl, 1 mM DTT, 1 mM EDTA, 10 mM Tris, 10 mM MgCl2, pH 8, 4 C, 30 min; CD: buffer with TCEP, pH 7.4, 30 min (rest not in material); conditions: protein: recombinant; tags: C-terminal GAP; His-SUMO cleaved off; chain copies: 2; blunt
Chain of cJun bZIP (P05412 other isoform, or with tags, fused parts or gaps): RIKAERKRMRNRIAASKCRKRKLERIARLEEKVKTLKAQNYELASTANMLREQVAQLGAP

[2] = molecular target: T1, HingeW (designed); assay: CD (281 nm DNA peak); EMSA: 150 mM KCl, 1 mM DTT, 1 mM EDTA, 10 mM Tris, 10 mM MgCl2, pH 8, 4 C, 30 min; CD: buffer with TCEP, pH 7.4, 30 min (rest not in material); conditions: protein: recombinant; tags: N-terminal MAS, C-terminal GAP-His6; blunt
T1 chain: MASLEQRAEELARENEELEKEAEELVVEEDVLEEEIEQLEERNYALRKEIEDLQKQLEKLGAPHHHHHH

[3] = molecular target: T2, A-FosW (designed); assay: CD (281 nm DNA peak); 50 uM A-FosW, 5 uM DNA; EMSA: 150 mM KCl, 1 mM DTT, 1 mM EDTA, 10 mM Tris, 10 mM MgCl2, pH 8, 4 C, 30 min; CD: buffer with TCEP, pH 7.4, 30 min (rest not in material); conditions: protein: recombinant; tags: N-terminal MAS, C-terminal GAP-His6; blunt
T2 chain: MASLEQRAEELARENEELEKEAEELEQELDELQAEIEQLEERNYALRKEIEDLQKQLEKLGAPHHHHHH

B1: TRE DNA (dsDNA)
DNA 1: GTCAGTCAGTGACTCAATCGGTCA
DNA 2: TGACCGATTGAGTCACTGACTGAC
[1]
  binding result: binds
[2]
  binding result: no binding
[3]
  binding result: no binding
